{"source": "paper PMC2658612", "about": "(Cell host & microbe, 2008)", "molecular_target": "T1, SifA (1–330), as in the calorimetry and the crystal (S. typhimurium, UniProt Q56061 1-330)", "T1 sequence": "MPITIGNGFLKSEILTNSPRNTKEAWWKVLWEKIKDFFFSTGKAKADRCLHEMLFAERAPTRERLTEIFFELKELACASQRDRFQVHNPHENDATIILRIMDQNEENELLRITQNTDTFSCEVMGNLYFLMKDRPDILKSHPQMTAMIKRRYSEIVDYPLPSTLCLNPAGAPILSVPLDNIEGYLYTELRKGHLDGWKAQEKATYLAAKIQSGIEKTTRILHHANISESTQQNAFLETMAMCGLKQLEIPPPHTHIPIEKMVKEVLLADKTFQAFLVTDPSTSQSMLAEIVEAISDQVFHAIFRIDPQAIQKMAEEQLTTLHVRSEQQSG", "assay": "ITC"}
{"binder": "PH domain (PHD) of SKIP (774–883), as in the calorimetry and the crystal (domain or fragment, UniProt Q8IWE5 774-883, looked up) KEGMLHYKAGTSYLGKEHWKTCFVVLSNGILYQYPDRTDVIPLLSVNMGGEQCGGCRRANTTDRPHAFQVILSDRPCLELSAESEAEMAEWMQHLCQAVSKGVIPQGVAP", "values": [{"measurement": "Kd", "value": 2580, "unit": "nM"}]}
